What is called EC50 is the concentration at which the effect is half-maximal. Read a high EC50 as a less potent agent.

Experimental findings from patent publication US20230416347A1 are described below.

Experiment [1] deals with rVλ6Wil fibrils. Kind of experiment: EuLISA on rVλ6Wil fibrils (FIG. 5A).
Experiment [2] deals with rVλ6Wil fibrils. Kind of experiment: EuLISA on rVλ6Wil fibrils (FIG. 5B).

Residue numbers refer to the chain shown, from its start.

B1: VH10/VL4 (antibody, V domains shown)
VH: QVQLQESGPGLVKPSETLSLTCTVSGFSLSSYGVSWIRQPPGKGLEWLGVIWGDGSTNYHPNLMSRLSISKDTSKSQVLLKLSSVTAADTAVYYCVTLDYWGQGTSVTVSS
VL: DVVMTQSPLSLPVTLGQPASISCRSSQSLVHRNGNTYLHWFQQRPGQSPRLLIYKVSNRFSGVPDRFSGSGSGTDFTLKISRVEAEDVGVYFCFQTTYVPNTFGGGTKLEIK
Molecule B1 had an EC50 with rVλ6Wil fibrils [1] of 17 nM.

B2: VH8/VL4 (antibody, V domains shown)
VH: B1 VH with L48I, L67V, S68T, V78F, L79S
VL: B1 VL
Consider B2, for which the EC50 in the experiment with rVλ6Wil fibrils [1] is 16 nM.

B3: VH7/VL4 (antibody, V domains shown)
VH: B1 VH with L48I, L67V, S68T, S76N
VL: B1 VL
On to B3, for which the EC50 with rVλ6Wil fibrils [1] is 75 nM.

B4: VH6/VL3 (antibody, V domains shown)
VH: B1 VH with I37V, S76N, V78F, L79S, V92T
VL: B1 VL with F41Y, Q42L, V90L
Consider B4, for which the EC50 with rVλ6Wil fibrils [1] and with rVλ6Wil fibrils [2] was 95 nM in each case.
